Source: patent US20250376511A1 (Sanofi, published 2025)

T1: Human active C1s (Complement Technology) (human, UniProt P09871 16-688)
T1 construct: In the functional assays the target is the C1s of human serum; also called aC1s; human aC1s
T1 sequence: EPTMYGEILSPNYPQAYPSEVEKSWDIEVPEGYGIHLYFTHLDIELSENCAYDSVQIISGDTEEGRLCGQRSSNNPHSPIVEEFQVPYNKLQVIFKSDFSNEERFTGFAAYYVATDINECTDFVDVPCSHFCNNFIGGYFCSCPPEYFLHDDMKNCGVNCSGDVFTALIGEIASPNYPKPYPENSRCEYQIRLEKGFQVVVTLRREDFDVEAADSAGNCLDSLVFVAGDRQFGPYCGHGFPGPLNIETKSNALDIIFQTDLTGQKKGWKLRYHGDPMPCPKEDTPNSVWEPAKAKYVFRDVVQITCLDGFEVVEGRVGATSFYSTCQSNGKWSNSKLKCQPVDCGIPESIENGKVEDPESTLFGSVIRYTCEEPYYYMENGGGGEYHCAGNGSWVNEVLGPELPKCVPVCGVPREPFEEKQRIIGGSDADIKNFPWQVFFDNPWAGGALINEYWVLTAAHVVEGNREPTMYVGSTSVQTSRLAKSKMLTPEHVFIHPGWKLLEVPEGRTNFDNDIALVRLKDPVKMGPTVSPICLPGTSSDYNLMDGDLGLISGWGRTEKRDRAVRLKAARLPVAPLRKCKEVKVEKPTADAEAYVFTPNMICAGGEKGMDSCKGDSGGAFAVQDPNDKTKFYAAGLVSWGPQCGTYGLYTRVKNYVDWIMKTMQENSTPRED

T2: cynomolgus aC1s (cynomolgus, UniProt A0A2K5VQX9 16-685)
T2 construct: also called Cyno aC1s; caC1s
T2 sequence: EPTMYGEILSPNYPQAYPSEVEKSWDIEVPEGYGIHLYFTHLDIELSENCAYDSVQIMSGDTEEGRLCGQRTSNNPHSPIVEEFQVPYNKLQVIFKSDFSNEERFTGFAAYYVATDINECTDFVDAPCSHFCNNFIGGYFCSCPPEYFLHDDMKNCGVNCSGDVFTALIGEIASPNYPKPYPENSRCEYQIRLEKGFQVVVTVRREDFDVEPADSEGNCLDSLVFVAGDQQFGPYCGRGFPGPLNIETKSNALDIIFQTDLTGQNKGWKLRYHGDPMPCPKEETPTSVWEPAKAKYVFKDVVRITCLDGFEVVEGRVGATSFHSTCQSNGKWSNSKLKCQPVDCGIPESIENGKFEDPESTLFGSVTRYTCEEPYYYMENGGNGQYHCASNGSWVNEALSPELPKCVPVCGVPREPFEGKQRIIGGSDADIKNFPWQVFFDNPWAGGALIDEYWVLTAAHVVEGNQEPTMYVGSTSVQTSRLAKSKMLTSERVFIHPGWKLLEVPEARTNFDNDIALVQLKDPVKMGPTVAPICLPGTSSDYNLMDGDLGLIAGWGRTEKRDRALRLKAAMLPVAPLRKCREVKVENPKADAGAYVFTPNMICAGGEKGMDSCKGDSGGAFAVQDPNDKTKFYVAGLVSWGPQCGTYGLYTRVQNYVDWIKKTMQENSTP


Key:
[1] = biological target: T1, Human active C1s (Complement Technology); experiment: SPR Biacore T200, antibody captured on anti-human Fc, human active C1s as analyte, 1:1 fit
Description: (§1) TfR and C1s binding using surface plasmon resonance (SPR): Analysis of antibody binding to TfR was performed on a Biacore™ T200 instrument using anti-His capture at 25° C. Anti-His (Qiagen) was buffer exchanged into PBS pH 7.2, diluted to 25 μg/mL in 10 mM sodium acetate pH 4.0 and directly immobilized to a series S CM5 chip to a surface density of ˜10,000 RU using the amine coupling kit provided by Cytiva. His-tagged recombinant human TfR (produced in-house) was diluted in HBS-EP+ pH 7.4 running buffer (10 mM HEPES pH 7.4, 150 mM NaCl, 3 mM EDTA, 0.05% surfactant P20) and injected for 5 sec at 20 μL/min flowrate to obtain capture level of 20 RU. Antibodies were serially diluted 2-fold from 90 to 5.625 nM in running buffer and injected over the captured TfR for 3 min followed by 9 min dissociation in buffer at 30 μL/min. Each cycle was regenerated with 10 mM glycine pH 1.5. To measure C1s binding, anti-human Fc (Jackson) was directly immobilized to a CM5 chip using amine chemistry. Antibodies were diluted to 2.5 μg/mL in HBS-EP+ pH 7.4 and captured to the chip for 15 sec at 20 μL/min flowrate. Human active C1s (Complement Technology) was serially diluted 2-fold from 20 to 0.625 nM in running buffer and injected over the captured antibodies for 180 sec at 50 μL/min followed by 9 min dissociation in buffer. The bound complex was removed from the chip each cycle with 40 mM HCl and 0.85% phosphoric acid. Sensorgrams were processed using the Biacore™ Insight software and fit to a 1:1 binding model to obtain kinetic constants.
(§2) The six bispecific anti-aC1s/anti-TfR antibodies were first tested for their affinity for both TfR and aC1s via surface plasmon resonance (SPR) (Table 2).

[2] = biological target: T1, Human active C1s (Complement Technology); experiment: cell-based or functional assay
[3] = biological target: T3, His-tagged recombinant human TfR (produced in-house) (human, UniProt P02786 89-760); experiment: hTfR affinity, SPR (method not restated for Table 1; same value as Table 2)
T3 construct: also called hTfR; transferrin receptor 1
Description: as §1, §2

[4] = biological target: T3, His-tagged recombinant human TfR …; experiment: SPR Biacore T200, His-tagged human TfR captured on anti-His, antibody as analyte, 25 C, 1:1 fit
Description: as §1, §2

[5] = biological target: T3, His-tagged recombinant human TfR …; experiment: SPR Biacore T200 (Table 2)
Description: as §1, with “The bound complex was removed from the chip each cycle with 40 mM HCl and 0.85% phosphoric acid. Sensorgrams were processed using the Biacore™ Insight software and fit to a 1:1 binding model to obtain kinetic constants.” left out

[6] = biological target: T1, Human active C1s (Complement Technology); experiment: cell-based or functional assay; remark: listed apart in the source
[7] = biological target: T1, Human active C1s (Complement Technology); experiment: cell-based or functional assay; remark: listed apart in the source
cynomolgus aC1s = biological target: T2, cynomolgus aC1s; experiment: affinity of bispecific purified from CHO cells (SPR; details not restated)
cynomolgus TfR = biological target: T4, cynomolgus TfR (cynomolgus, UniProt H9EXL1 89-760 (rhesus entry)); experiment: as above
T4 construct: also called Cyno TfR; cTfR

[8] = biological target: T1, Human active C1s (Complement Technology); experiment: as above
[9] = biological target: T3, His-tagged recombinant human TfR …; experiment: as above
[10] = biological target: T1, Human active C1s (Complement Technology); experiment: cell-based or functional assay; remark: listed apart in the source

T3 sequence (P02786 89-760 limits assumed): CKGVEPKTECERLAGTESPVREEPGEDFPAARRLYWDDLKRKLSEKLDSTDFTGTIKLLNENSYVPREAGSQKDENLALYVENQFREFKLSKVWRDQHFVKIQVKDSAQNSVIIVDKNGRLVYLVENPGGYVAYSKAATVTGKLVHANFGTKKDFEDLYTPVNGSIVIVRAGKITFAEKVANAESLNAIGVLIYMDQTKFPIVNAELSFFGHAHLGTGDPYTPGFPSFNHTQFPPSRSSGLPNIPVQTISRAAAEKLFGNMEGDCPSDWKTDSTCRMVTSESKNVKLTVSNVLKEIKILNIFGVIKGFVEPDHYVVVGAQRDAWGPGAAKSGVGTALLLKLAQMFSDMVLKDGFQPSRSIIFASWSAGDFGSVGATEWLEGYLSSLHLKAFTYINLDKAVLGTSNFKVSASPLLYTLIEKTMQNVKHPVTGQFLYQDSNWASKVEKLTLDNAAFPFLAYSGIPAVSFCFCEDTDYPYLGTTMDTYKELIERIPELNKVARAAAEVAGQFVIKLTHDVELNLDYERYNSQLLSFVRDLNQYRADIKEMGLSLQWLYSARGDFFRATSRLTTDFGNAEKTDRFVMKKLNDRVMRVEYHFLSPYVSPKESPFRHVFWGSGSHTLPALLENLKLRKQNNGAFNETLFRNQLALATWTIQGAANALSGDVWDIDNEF
T4 sequence (chain, as listed by the source): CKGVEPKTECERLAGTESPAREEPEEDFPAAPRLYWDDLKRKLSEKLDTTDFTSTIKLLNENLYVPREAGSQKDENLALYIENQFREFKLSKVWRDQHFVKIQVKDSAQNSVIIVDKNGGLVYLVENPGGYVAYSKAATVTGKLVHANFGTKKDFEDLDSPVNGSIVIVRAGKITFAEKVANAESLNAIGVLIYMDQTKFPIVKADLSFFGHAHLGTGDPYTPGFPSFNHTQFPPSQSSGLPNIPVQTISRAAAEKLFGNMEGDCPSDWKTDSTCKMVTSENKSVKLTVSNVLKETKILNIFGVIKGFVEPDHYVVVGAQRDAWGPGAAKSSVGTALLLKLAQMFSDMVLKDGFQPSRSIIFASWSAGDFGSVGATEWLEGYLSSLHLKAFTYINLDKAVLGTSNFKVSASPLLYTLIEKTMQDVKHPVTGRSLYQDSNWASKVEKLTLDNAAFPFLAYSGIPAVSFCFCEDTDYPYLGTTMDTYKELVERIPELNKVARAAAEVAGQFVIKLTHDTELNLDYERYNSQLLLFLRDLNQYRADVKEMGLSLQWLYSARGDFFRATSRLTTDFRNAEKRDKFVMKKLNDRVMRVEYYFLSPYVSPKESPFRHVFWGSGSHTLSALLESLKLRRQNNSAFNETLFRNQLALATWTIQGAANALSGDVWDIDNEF

| Kd [1] [nM] | koff [1] [s⁻¹] | kon [1] [M⁻¹ s⁻¹] | IC50, Wieslab Complement Pathway Assay (classical pathway, 1% NHS) [2] [µg/mL] | Kd [3] [nM] | Kd [4] [nM] | koff [4] [s⁻¹] | kon [4] [M⁻¹ s⁻¹] | fold higher affinity than the 531v25 and 531v25.v6 variants [5] [fold] | IC50, C3d deposition on neurons in iPSC tricultures with serum [6] [µg/mL] | IC50, C3d deposition on neurons in iPSC tri-cultures with 3% serum [7] [µg/mL] | Kd (cynomolgus aC1s) [nM] | Kd (cynomolgus TfR) [nM] | Kd [8] [nM] | Kd [9] [nM] | IC50, Wieslab Complement Pathway Assay [10] [µg/mL] | IC90, Wieslab Complement Pathway Assay [10] [µg/mL] | Binder |
| --- | --- | --- | --- | --- | --- | --- | --- | --- | --- | --- | --- | --- | --- | --- | --- | --- | --- |
| 0.79 | 0.00245 | 3.14e+06 | 1.67 | 9.65 | 9.65 | 0.00183 | 189000 | ~2 | 16.2 | – | – | – | – | – | – | – | aC1s_088 × 531v23 IgG4-PE/dK (bispecific antibody, V domains shown, IgG4-PE Fc, dK, with charge pairing mutations; The charge-mutated (starred) variable domains are used for both arms; also called aC1s_088-CM × 531v23 IgG4) VH 1: QVQLVQSGAEVKKPGASVKLSCTASGFNIKDDYIHWVKEAPGQGLEWIGRIDPADGHTKYAPKFQVKVTITADTSTSTAYLELSSLRSEDTAVYYCARYGYGREVFDYWGQGTTVTVSS VL 1: DIVLTQSPDSLAVSLGERATISCKASQSVDYDGDSYMNWYQKKPGQPPKILIYDASNLESGIPARFSGSGSGTDFTLTISSLEPEDFAIYYCQQSNEDPWTFGGGTKVEIK VH 2: QVQLVQSGAEVKKPGASVKVSCKASGYTFTRYYLNWVRKAPGQGLEWIGMIDPSVSETHYAQKFQGRATLTVDKSTSTAYMELSSLRSEDTAVYYCSQIRLPYYYAMDSWGQGTTVTVSS VL 2: DIQMTQSPSSLSASVGDRVTITCRASQDISSFLNWYQEKPGKAPKLLIYYTSRLHSGVPSRFSGSGSGTDYTLTISSLQPEDFATYYCQQGNTLPRTFGGGTKVEIK |
| – | – | – | – | – | – | – | – | – | – | 23.5 | 0.248 | 43.7 | 3.31 | 28.6 | 1.08 | 7.6 | bispecific anti-aC1s (L4)/anti-TfR (531v25.v6) IgG4 antibody (bispecific antibody, Purified from CHO cells; monovalent for aC1s) heavy 1: QVQLVQSGAEVKKPGASVKLSCTASGFNIKDDYIHWVKEAPGQGLEWIGRIDPADGHTKYAPKFQVKVTITADTSTSTAYLELSSLRSEDTAVYYCARYGYGREVFDYWGQGTTVTVSSASTKGPSVFPLAPCSRSTSESTAALGCLVKDYFPEPVTVSWNSGALTSGVHTFPAVLQSSGLYSLSSVVEVPSSSLGTKTYTCNVDHKPSNTKVDERVESDYGPPCPPCPAPEFEGGPSVFLFPPKPKDTLMISRTPEVTCVVVDVSQEDPEVQFNWYVDGVEVHNAKTKPREEQFNSTYRVVSVLTVLHQDWLNGKEYKCKVSNKGLPSSIEKTISKAKGQPREPQVCTLPPSQEEMTKNQVSLSCAVKGFYPSDIAVEWESNGQPENNYKTTPPVLDSDGSFFLVSRLTVDKSRWQEGNVFSCSVLHEALHSRFTQKSLSLSLG light 1: DIVMTQSPDSLAVSLGERATISCKSSQSVDYEGDSYLNWYQKKPGQPPKLLIYDASNLESGVPDRFSGSGSGTDFTLTISSLQAEDVAVYYCQQSNEDPWTFGQGTKVEIKRTVAAPAVFIFPPSKKQLKSGTASVVCLLKNFYPREAKVQWKVDNALQSGNSQESVTEQDSKDSTYSLSSTLTLSKADYEKHKVYACEVTHQGLSSPVTKSFNRGEC heavy 2: QVQLVQSGAEVKKPGASVKVSCKASGYTFTRYYLNWVRKAPGQGLEWIGMIDPSVSETHYAQKFQGRATLTVDKSTSTAYMELSSLRSEDTAVYYCSQIRLPYYYAMDSWGQGTTVTVSSASTKGPSVFPLAPCSRSTSESTAALGCLVKDYFPEPVTVSWNSGALTSGVHTFPAVLQSSGLYSLSSVVTVPSSSLGTKTYTCNVDHKPSNTKVDKRVESKYGPPCPPCPAPEFEGGPSVFLFPPKPKDTLMISRTPEVTCVVVDVSQEDPEVQFNWYVDGVEVHNAKTKPREEQFNSTYRVVSVLTVLHQDWLNGKEYKCKVSNKGLPSSIEKTISKAKGQPREPQVYTLPPCQEEMTKNQVSLWCLVKGFYPSDIAVEWESNGQPENNYKTTPPVLDSDGSFFLYSRLTVDKSRWQEGNVFSCSVLHEALHSHYTQKSLSLSLG light 2: DIQMTQSPSSLSASVGDRVTITCRASQDIESFLNWYQEKPGKAPKLLIYYTSRLQSGVPSRFSGSGSGTDYTLTISSLQPEDFATYYCQQGNTLPRTFGGGTKVEIKRTVAAPSVFIFPPSDEQLKSGTASVVCLLNNFYPREAKVQWKVDNALQSGNSQESVTEQDSKDSTYSLSSTLTLSKADYEKHKVYACEVTHQGLSSPVTKSFNRGEC |
